For assay [1], the target named is HER3 recombinantly expressed on CHO-K1 cells (human, UniProt P21860 20-643). In words: cell-based or functional assay.
For assay [2], the target named is T1, HER3 expressed by MCF7 cells (human, UniProt P21860 20-1342).
T1 construct: whole, on cells; Endogenous HER3 on MCF7 cells; also called cells expressing HER3 protein
Kind of assay: flow cytometry on MCF7 cells, geometric mean fluorescence. Here is the method: MCF7 cells (ATCC, HTB-22) were suspended in FACS buffer (2% fetal bovine serum (Gibco, 10099141) pH 7.4 PBS (Sigma, P4417-100TAB)) to give a 1×10⁶ cells/mL cell suspension, which was then added to a 96-well round-bottom plate at 100 μL/well. After centrifugation and removal of the supernatant, the test antibody that was diluted with FACS buffer to different concentrations was added at 50 μL/well. The plate was incubated in the dark in a 4° C. refrigerator for 1 h. The plate was washed 3 times with FACS buffer by centrifugation at 300 g, and Alexa Fluor 488 Goat anti-HuMan IgG (H+L) (invitrogen, A-11013) at working concentration was then added. The plate was incubated in the dark in a 4° C. refrigerator for 40 min. The plate was washed 3 times with FACS buffer by centrifugation at 300 g and tested on a BD FACSCantoII flow cytometer for geometric mean fluorescence intensity.

Assay [3] deals with T2, HER3 protein (free, coated on the ELISA plate) (UniProt P21860 20-643, limits assumed).
T2 construct: also called free HER3 protein
In words: ELISA, HER3 protein coated on the plate, antibody titrated. Here is the method:
HER3 protein was diluted to 1 μg/mL with pH 7.4 PBS buffer (Shanghai BasalMedia Technologies Co., LTD., B320) and added to a 96-well microplate at 100 μL/well. The plate was incubated at 4° C. overnight. After the liquid was discarded, 300 μL of 5% skim milk (BD, 232100) diluted with PBS was added to each well for blocking, and the plate was incubated at 37° C. for 2 h. After the blocking was completed, the blocking solution was discarded; after the plate was washed 3 times with PBST buffer (pH 7.4 PBS containing 0.1% tween-20), 100 μL of a gradient diluted antibody solution was added to each well, and the plate was incubated at 37° C. for 1 h. After the incubation was completed, the plate was washed 3 times with PBST buffer, and 100 μL of 1:8000 diluted Mouse Anti-HuMan IgG (H+L) (Jackson ImmunoResearch, 209-035-088) was added to each well. The plate was incubated at 37° C. for 1 h. After the plate was washed 3 times with PBST buffer, 100 μL of TMB chromogenic substrate (KPL, 5120-0077) was added to each well, and the plate was incubated at room temperature for 10-15 min. The reaction was terminated by adding 50 μL of 1 M H₂SO₄ to each well. The absorbance readings at 450 nm were taken on a microplate reader, and the binding curves of the antibodies to antigen were fitted with software, as shown in FIG. 1.

T2 sequence (P21860 20-643 limits assumed): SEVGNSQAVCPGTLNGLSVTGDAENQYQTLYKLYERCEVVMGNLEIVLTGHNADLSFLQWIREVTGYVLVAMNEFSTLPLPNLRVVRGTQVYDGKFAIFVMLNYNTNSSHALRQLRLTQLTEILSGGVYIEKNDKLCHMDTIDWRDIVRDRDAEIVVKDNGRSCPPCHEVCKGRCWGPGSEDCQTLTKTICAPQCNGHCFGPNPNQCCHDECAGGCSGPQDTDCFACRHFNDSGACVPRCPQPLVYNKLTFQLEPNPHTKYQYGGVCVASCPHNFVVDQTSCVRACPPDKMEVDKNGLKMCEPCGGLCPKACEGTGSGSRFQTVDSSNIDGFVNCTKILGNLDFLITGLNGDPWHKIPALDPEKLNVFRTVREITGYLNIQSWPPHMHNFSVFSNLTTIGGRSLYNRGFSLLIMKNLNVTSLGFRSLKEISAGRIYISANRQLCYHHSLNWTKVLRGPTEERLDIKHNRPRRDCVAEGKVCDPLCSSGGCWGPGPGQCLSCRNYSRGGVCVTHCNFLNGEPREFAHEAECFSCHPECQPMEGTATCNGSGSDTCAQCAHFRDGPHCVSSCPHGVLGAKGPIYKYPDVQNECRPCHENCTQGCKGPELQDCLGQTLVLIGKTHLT
Chain of HER3 recombinantly expressed on CHO-K1 cells (P21860 20-643): as the sequence (P21860 20-643 limits assumed) above
T1 sequence (P21860 20-1342): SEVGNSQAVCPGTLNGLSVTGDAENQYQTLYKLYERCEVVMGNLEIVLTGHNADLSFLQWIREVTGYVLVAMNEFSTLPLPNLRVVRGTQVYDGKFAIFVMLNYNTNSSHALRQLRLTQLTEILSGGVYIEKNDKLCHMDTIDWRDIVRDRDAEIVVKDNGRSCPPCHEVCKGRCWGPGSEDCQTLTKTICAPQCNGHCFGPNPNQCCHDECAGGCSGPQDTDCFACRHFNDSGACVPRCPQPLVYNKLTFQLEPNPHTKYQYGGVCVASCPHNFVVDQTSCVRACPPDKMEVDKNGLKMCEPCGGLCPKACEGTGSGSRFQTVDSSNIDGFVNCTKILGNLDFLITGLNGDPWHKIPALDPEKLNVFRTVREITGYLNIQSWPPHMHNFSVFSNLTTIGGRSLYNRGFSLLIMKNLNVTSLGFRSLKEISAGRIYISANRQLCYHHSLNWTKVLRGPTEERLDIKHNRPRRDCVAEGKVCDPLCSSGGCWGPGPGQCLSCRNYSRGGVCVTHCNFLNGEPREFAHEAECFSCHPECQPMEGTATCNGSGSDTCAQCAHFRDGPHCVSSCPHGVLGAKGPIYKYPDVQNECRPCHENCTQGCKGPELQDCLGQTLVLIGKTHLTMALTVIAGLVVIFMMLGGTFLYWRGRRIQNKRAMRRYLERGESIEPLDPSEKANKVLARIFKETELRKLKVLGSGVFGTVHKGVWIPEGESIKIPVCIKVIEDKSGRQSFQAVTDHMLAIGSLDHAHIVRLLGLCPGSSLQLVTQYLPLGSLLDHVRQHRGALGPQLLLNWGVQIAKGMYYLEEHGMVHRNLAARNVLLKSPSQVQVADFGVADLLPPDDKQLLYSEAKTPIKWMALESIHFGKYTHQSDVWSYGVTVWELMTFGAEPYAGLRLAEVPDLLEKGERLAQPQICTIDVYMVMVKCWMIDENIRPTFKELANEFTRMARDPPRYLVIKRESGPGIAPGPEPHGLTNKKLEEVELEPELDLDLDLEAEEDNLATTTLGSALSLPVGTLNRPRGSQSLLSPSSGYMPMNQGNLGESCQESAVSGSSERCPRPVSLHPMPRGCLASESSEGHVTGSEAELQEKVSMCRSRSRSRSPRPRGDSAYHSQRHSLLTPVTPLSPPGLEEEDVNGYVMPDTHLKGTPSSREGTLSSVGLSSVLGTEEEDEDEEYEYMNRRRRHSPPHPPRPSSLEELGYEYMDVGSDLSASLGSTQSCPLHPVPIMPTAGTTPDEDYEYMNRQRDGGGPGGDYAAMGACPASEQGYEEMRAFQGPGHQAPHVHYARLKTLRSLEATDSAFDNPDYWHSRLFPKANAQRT

B1: positive control antibody U3 (antibody, human IgG1, kappa, V domains shown)
VH: QVQLQQWGAGLLKPSETLSLTCAVYGGSFSGYYWSWIRQPPGKGLEWIGEINHSGSTNYNPSLKSRVTISVETSKNQFSLKLSSVTAADTAVYYCARDKWTWYFDLWGRGTLVTVSS
VL: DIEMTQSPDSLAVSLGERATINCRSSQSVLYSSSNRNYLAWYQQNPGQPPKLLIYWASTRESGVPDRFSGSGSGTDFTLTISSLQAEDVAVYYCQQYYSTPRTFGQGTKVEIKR
notes: also called U1-59 (WO2007077028A2)
B1: the “IC50 (nM) (DT3C antibody endocytosis assay, cell killing)” value in assay [1] came out at 2.81 nM. The EC50 was 0.249 nM in assay [2] and 0.56 nM in assay [3].

B2: fully human antibody molecule HER3-29 (antibody, human IgG1, kappa, V domains shown)
VH: QVQLVQSGGGLVQPGRSLRLSCAASGFTFDDYAMHWVRQAPGKGLEWVSGISWNSGSIGYADSVKGRFTISRDNAKNSLYLQMNSLRAEDTALYYCAKEGLPGLDYWGQGTLVTVSS
VL: DIQMTQSPSSLSASIGDRATITCRASQHVGTYLNWYQQKPGKTPKLLISGAANLQSGVPSRFSGSGSGTDFTLTISSLQPEDFATYYCQQSYNTPPFSFGQGTKVEIKR
notes: Human IgG1 / kappa; From a fully human natural phage library, expressed in HEK293 and Expi-CHO-S cells; also called antibody HER3-29
On to B2, for which the “IC50 (nM) (DT3C antibody endocytosis assay, cell killing)” value in assay [1] amounted to 0.51 nM. Further, the EC50 in assay [2] was 0.057 nM; in assay [3], 0.14 nM.

For the origin of these results see US20240026028A1 (JIANGSU HENGRUI PHARMACEUTICALS, published 2024).
